Measured values as given in publication PMC1891314.

What was measured:
[1] = molecular target: OD_(CN54)+-Fc (outer domain of HIV-1 CN54 gp120, residues 251-481, with V295N+A394T, fused at its C terminus to the Fc domain of human IgG1) (HIV-1 CN54 | human); experiment: SDS-PAGE under non-reducing conditions; purified Fc fusion proteins under non-reducing conditions; data not shown
[2] = molecular target: gp120_(CN54)+-Fc (HIV-1 CN54 gp120 with V295N+A394T, fused at its C terminus to the Fc domain of human IgG1) (HIV-1 CN54 | human); experiment: as above

Substance | stoichiometry N [1] | stoichiometry N [2]
OD_(CN54)+-Fc (outer domain of HIV-1 CN54 gp120, residues 251-481, with V295N+A394T, fused at its C terminus to the Fc domain of human IgG1) (Fc fusion) | 2 | –
gp120_(CN54)+-Fc (HIV-1 CN54 gp120 with V295N+A394T, fused at its C terminus to the Fc domain of human IgG1) (Fc fusion) | – | 2
